This note sets out measurements from article PMC5010500 (Journal of molecular biology, 2016).

Series [1] addresses T1, human Keap1 Kelch domain (residues 322-624) (human, UniProt Q14145 322-624). Briefly: native MS.
The series “[…]” concerns the molecule itself. The experiment in a line: […].
For the next series, the target named is full length human Keap1 (human, UniProt Q14145 1-624). The experiment in a line: […].
Series [2] concerns the target T1, human Keap1 Kelch domain (residues …). The experiment in a line: ITC.

T1 sequence (Q14145 322-624): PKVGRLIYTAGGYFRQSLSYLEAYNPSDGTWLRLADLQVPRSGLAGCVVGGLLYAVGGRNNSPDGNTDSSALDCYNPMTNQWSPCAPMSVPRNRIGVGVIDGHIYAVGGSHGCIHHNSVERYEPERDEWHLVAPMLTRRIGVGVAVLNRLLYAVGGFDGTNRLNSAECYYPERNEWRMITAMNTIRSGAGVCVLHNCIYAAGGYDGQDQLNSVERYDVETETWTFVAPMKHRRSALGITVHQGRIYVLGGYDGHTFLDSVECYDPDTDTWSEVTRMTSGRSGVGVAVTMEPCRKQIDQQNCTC
Chain of full length human Keap1 (Q14145 whole entry, the tested form may be a part): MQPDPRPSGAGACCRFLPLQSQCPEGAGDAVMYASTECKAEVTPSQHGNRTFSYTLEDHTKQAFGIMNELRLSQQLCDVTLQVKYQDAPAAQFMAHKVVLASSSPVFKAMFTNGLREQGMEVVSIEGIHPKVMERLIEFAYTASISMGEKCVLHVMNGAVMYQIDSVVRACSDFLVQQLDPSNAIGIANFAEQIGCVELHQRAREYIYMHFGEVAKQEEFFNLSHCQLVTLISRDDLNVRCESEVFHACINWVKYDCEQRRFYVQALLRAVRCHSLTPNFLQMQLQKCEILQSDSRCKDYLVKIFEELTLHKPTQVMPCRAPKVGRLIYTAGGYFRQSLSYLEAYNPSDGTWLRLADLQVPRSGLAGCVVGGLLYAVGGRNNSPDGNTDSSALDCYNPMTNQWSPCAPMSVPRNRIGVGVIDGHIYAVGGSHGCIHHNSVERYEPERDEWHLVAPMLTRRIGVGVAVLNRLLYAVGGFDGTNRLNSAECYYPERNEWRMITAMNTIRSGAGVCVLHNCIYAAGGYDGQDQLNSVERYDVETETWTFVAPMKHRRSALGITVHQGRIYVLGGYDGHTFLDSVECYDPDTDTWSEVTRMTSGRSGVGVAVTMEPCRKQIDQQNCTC

B1: MBP-tagged Marburg virus viral protein 24, wild type, full length (natural protein)
chain: MAELSTRYNLPANVTENSINLDLNSTARWIKEPSVGGWTVKWGNFVFHIPNTGMTLLHHLKSNFVVPEWQQTRNLFSHLFKNPKSTIIEPFLALRILLGVALKDQELQQSLIPGFRSIVHMLSEWLLLEVTSAIHISPNLLGIYLTSDMFKILMAGVKNFFNKMFTLHVVNDHGKPSSIEIKLTGQQIIITRVNMGFLVEVRRIDIEPCCGETVLSESVVFGLVAEAVLREHSQMEKGQPLNLTQYMNSKIAI
The term stoichiometry N denotes a count of units in the complex or per binding partner. In the case of B1, the entries for the “stoichiometry N” value (in series [1]; in series […]; with full length human Keap1) were 1, 2 and 1 mVP24 per Keap1 (2:2), respectively.

B2: MBP-tagged mVP24 N-terminal truncation (residues 22-253) (domain or fragment)
chain: DLNSTARWIKEPSVGGWTVKWGNFVFHIPNTGMTLLHHLKSNFVVPEWQQTRNLFSHLFKNPKSTIIEPFLALRILLGVALKDQELQQSLIPGFRSIVHMLSEWLLLEVTSAIHISPNLLGIYLTSDMFKILMAGVKNFFNKMFTLHVVNDHGKPSSIEIKLTGQQIIITRVNMGFLVEVRRIDIEPCCGETVLSESVVFGLVAEAVLREHSQMEKGQPLNLTQYMNSKIAI
As a reminder, the Kd is a measure of binding affinity in units of concentration. On to B2, for which binding in series [2] was characterised by a dissociation constant (Kd) of 77 ± 4 nM.
